Test results as given in US20220298218A1 (ANTAG THERAPEUTICS, published 2022).
Read-outs that look alike come from different tables or passages of the source. *1 amine or outer side, *2 acyl side, *3 side chain or, on linkers, in order; H or OH if unused. Where no end group is shown, it is not given here. Side-chain parts run from the residue outwards. The star is where a group is joined. C18 diacid = O=C(O)CCCCCCCCCCCCCCCCC(=O)*; C16 diacid = O=C(O)CCCCCCCCCCCCCCC(=O)*; γGlu = O=C(O)[C@H](CCC(=O)[*:2])N[*:1]; AEEA = NCCOCCOCC(=O)O

Assays:
human GIP receptor [1] = biological target: T1, human GIP receptor (human, UniProt P48546 22-466); test: cell-based or functional assay
T1 sequence (looked up): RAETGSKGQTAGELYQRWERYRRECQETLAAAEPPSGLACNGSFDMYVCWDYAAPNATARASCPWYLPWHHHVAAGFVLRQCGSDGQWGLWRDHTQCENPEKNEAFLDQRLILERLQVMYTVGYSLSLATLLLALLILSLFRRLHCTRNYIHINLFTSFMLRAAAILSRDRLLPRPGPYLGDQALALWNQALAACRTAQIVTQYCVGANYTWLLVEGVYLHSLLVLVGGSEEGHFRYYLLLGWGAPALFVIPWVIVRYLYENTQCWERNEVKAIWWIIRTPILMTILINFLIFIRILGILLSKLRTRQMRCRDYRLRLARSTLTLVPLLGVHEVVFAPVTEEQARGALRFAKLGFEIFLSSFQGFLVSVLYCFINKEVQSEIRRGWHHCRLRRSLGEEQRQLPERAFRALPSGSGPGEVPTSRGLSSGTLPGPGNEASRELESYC

human GIP receptor [2] = biological target: T1, human GIP receptor; test: cell-based or functional assay; remark: listed apart in the source

B1: AT423 (peptide)
peptide: SGTFISDYSIAMDRIK([AEEA-AEEA-γGlu-C16 diacid])QQDFVNWLLAQRGRRNDW-OH
modifications: N-terminus assumed
SMILES: CC[C@H](C)[C@H](NC(=O)[C@H](CO)NC(=O)[C@H](Cc1ccc(O)cc1)NC(=O)[C@H](CC(=O)O)NC(=O)[C@H](CO)NC(=O)[C@@H](NC(=O)[C@H](Cc1ccccc1)NC(=O)[C@@H](NC(=O)CNC(=O)[C@@H](N)CO)[C@@H](C)O)[C@@H](C)CC)C(=O)N[C@@H](C)C(=O)N[C@@H](CCSC)C(=O)N[C@@H](CC(=O)O)C(=O)N[C@@H](CCCNC(=N)N)C(=O)N[C@H](C(=O)N[C@@H](CCCCNC(=O)COCCOCCNC(=O)COCCOCCNC(=O)CC[C@H](NC(=O)CCCCCCCCCCCCCCC(=O)O)C(=O)O)C(=O)N[C@@H](CCC(N)=O)C(=O)N[C@@H](CCC(N)=O)C(=O)N[C@@H](CC(=O)O)C(=O)N[C@@H](Cc1ccccc1)C(=O)N[C@H](C(=O)N[C@@H](CC(N)=O)C(=O)N[C@@H](Cc1c[nH]c2ccccc12)C(=O)N[C@@H](CC(C)C)C(=O)N[C@@H](CC(C)C)C(=O)N[C@@H](C)C(=O)N[C@@H](CCC(N)=O)C(=O)N[C@@H](CCCNC(=N)N)C(=O)NCC(=O)N[C@@H](CCCNC(=N)N)C(=O)N[C@@H](CCCNC(=N)N)C(=O)N[C@@H](CC(N)=O)C(=O)N[C@@H](CC(=O)O)C(=O)N[C@@H](Cc1c[nH]c2ccccc12)C(=O)O)C(C)C)[C@@H](C)CC
cAMP antagonism (human GIP receptor [1]): 6 nM | cAMP antagonism % inhib (human GIP receptor [1]): 95% | cAMP antagonism log (human GIP receptor [1]): -8.2 log M | cAMP agonism % Emax (human GIP receptor [2]): 0% | cAMP antagonism (human GIP receptor [2]): 79.4 nM | cAMP antagonism % inhib (human GIP receptor [2]): 71% | cAMP antagonism pIC50 (human GIP receptor [2]): 7.1

B2: AT422 (peptide)
peptide: SGTFISDYSIAMDKIK([AEEA-AEEA-AEEA-γGlu-C18 diacid])QQDFVNWLLAQKGKKNDW-OH
modifications: N-terminus assumed
SMILES: CC[C@H](C)[C@H](NC(=O)[C@H](CO)NC(=O)[C@H](Cc1ccc(O)cc1)NC(=O)[C@H](CC(=O)O)NC(=O)[C@H](CO)NC(=O)[C@@H](NC(=O)[C@H](Cc1ccccc1)NC(=O)[C@@H](NC(=O)CNC(=O)[C@@H](N)CO)[C@@H](C)O)[C@@H](C)CC)C(=O)N[C@@H](C)C(=O)N[C@@H](CCSC)C(=O)N[C@@H](CC(=O)O)C(=O)N[C@@H](CCCCN)C(=O)N[C@H](C(=O)N[C@@H](CCCCNC(=O)COCCOCCNC(=O)COCCOCCNC(=O)COCCOCCNC(=O)CC[C@H](NC(=O)CCCCCCCCCCCCCCCCC(=O)O)C(=O)O)C(=O)N[C@@H](CCC(N)=O)C(=O)N[C@@H](CCC(N)=O)C(=O)N[C@@H](CC(=O)O)C(=O)N[C@@H](Cc1ccccc1)C(=O)N[C@H](C(=O)N[C@@H](CC(N)=O)C(=O)N[C@@H](Cc1c[nH]c2ccccc12)C(=O)N[C@@H](CC(C)C)C(=O)N[C@@H](CC(C)C)C(=O)N[C@@H](C)C(=O)N[C@@H](CCC(N)=O)C(=O)N[C@@H](CCCCN)C(=O)NCC(=O)N[C@@H](CCCCN)C(=O)N[C@@H](CCCCN)C(=O)N[C@@H](CC(N)=O)C(=O)N[C@@H](CC(=O)O)C(=O)N[C@@H](Cc1c[nH]c2ccccc12)C(=O)O)C(C)C)[C@@H](C)CC
cAMP agonism Emax (human GIP receptor [1]): 6 | cAMP antagonism (human GIP receptor [1]): 3 nM | cAMP antagonism % inhib (human GIP receptor [1]): 90% | cAMP antagonism log (human GIP receptor [1]): -8.5 log M | cAMP agonism % Emax (human GIP receptor [2]): 0% | cAMP antagonism (human GIP receptor [2]): 3.69 nM | cAMP antagonism % inhib (human GIP receptor [2]): 94% | cAMP antagonism pIC50 (human GIP receptor [2]): 8.4
